IntAct's records for PubMed 19513235

B1: Mitogen-activated protein kinase kinase 1 (Arabidopsis thaliana (Mouse-ear cress)), Q94A06 (parent)
chain: MNRGSLCPNPICLPPLEQSISKFLTQSGTFKDGDLRVNKDGIQTVSLSEPGAPPPIEPLDNQLSLADLEVIKVIGKGSSGNVQLVKHKLTQQFFALKVIQLNTEESTCRAISQELRINLSSQCPYLVSCYQSFYHNGLVSIILEFMDGGSLADLLKKVGKVPENMLSAICKRVLRGLCYIHHERRIIHRDLKPSNLLINHRGEVKITDFGVSKILTSTSSLANSFVGTYPYMSPERISGSLYSNKSDIWSLGLVLLECATGKFPYTPPEHKKGWSSVYELVDAIVENPPPCAPSNLFSPEFCSFISQCVQKDPRDRKSAKELLEHKFVKMFEDSDTNLSAYFTDAGSLIPPLAN
partner: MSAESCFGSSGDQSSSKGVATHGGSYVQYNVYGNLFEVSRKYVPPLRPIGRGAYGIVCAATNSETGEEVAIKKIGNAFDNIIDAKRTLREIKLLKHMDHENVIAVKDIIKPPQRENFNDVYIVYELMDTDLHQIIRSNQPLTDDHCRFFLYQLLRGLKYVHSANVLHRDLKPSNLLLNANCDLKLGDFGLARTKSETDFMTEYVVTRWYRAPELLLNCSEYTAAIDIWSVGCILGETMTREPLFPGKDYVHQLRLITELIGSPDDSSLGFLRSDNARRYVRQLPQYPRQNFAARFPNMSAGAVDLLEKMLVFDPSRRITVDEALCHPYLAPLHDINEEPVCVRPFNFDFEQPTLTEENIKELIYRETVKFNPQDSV
B2: Mitogen-activated protein kinase kinase 2 (Arabidopsis thaliana (Mouse-ear cress)), Q9S7U9 (parent)
chain: MKKGGFSNNLKLAIPVAGEQSITKFLTQSGTFKDGDLRVNKDGVRIISQLEPEVLSPIKPADDQLSLSDLDMVKVIGKGSSGVVQLVQHKWTGQFFALKVIQLNIDEAIRKAIAQELKINQSSQCPNLVTSYQSFYDNGAISLILEYMDGGSLADFLKSVKAIPDSYLSAIFRQVLQGLIYLHHDRHIIHRDLKPSNLLINHRGEVKITDFGVSTVMTNTAGLANTFVGTYNYMSPERIVGNKYGNKSDIWSLGLVVLECATGKFPYAPPNQEETWTSVFELMEAIVDQPPPALPSGNFSPELSSFISTCLQKDPNSRSSAKELMEHPFLNKYDYSGINLASYFTDAGSPLATLGNLSGTFSV
partner: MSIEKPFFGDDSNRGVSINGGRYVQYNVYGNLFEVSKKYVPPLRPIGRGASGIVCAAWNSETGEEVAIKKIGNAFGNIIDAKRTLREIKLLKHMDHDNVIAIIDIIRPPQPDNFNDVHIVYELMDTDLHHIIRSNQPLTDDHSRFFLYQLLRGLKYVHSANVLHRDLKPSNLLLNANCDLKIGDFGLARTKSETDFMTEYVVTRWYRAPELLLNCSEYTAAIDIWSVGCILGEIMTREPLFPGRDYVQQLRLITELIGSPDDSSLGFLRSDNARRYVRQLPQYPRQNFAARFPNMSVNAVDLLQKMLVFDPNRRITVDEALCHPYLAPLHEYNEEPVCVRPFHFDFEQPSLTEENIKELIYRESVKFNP
B3: Mitogen-activated protein kinase kinase 1 (Arabidopsis thaliana (Mouse-ear cress)), Q94A06 (parent)
chain: B1 chain
partner: B2 partner
B4: Mitogen-activated protein kinase kinase 9 (Arabidopsis thaliana (Mouse-ear cress)), Q9FX43 (parent)
chain: MALVRERRQLNLRLPLPPISDRRFSTSSSSATTTTVAGCNGISACDLEKLNVLGCGNGGIVYKVRHKTTSEIYALKTVNGDMDPIFTRQLMREMEILRRTDSPYVVKCHGIFEKPVVGEVSILMEYMDGGTLESLRGGVTEQKLAGFAKQILKGLSYLHALKIVHRDIKPANLLLNSKNEVKIADFGVSKILVRSLDSCNSYVGTCAYMSPERFDSESSGGSSDIYAGDIWSFGLMMLELLVGHFPLLPPGQRPDWATLMCAVCFGEPPRAPEGCSEEFRSFVECCLRKDSSKRWTAPQLLAHPFLREDL

Variants of: B1
Details: with mpk4_arath MPK4, Q39024

| effect of a mutation on the interaction | Variant |
| --- | --- |
| increasing interaction | MNRGSLCPNPICLPPLEQSISKFLTQSGTFKDGDLRVNKDGIQTVSLSEPGAPPPIEPLDNQLSLADLEVIKVIGKGSSGNVQLVKHKLTQQFFALKVIQLNTEESTCRAISQELRINLSSQCPYLVSCYQSFYHNGLVSIILEFMDGGSLADLLKKVGKVPENMLSAICKRVLRGLCYIHHERRIIHRDLKPSNLLINHRGEVKITDFGVSKILTSTSSLANDFVGTYPYMSPERISGSLYSNKSDIWSLGLVLLECATGKFPYTPPEHKKGWSSVYELVDAIVENPPPCAPSNLFSPEFCSFISQCVQKDPRDRKSAKELLEHKFVKMFEDSDTNLSAYFTDAGSLIPPLAN [S224D] |
| increasing interaction | MNRGSLCPNPICLPPLEQSISKFLTQSGTFKDGDLRVNKDGIQTVSLSEPGAPPPIEPLDNQLSLADLEVIKVIGKGSSGNVQLVKHKLTQQFFALKVIQLNTEESTCRAISQELRINLSSQCPYLVSCYQSFYHNGLVSIILEFMDGGSLADLLKKVGKVPENMLSAICKRVLRGLCYIHHERRIIHRDLKPSNLLINHRGEVKITDFGVSKILTSESSLANSFVGTYPYMSPERISGSLYSNKSDIWSLGLVLLECATGKFPYTPPEHKKGWSSVYELVDAIVENPPPCAPSNLFSPEFCSFISQCVQKDPRDRKSAKELLEHKFVKMFEDSDTNLSAYFTDAGSLIPPLAN [T218E] |

Variants of: B2
Details: with mpk11_arath MPK11, Q9LMM5

| effect of a mutation on the interaction | Variant |
| --- | --- |
| increasing interaction | MKKGGFSNNLKLAIPVAGEQSITKFLTQSGTFKDGDLRVNKDGVRIISQLEPEVLSPIKPADDQLSLSDLDMVKVIGKGSSGVVQLVQHKWTGQFFALKVIQLNIDEAIRKAIAQELKINQSSQCPNLVTSYQSFYDNGAISLILEYMDGGSLADFLKSVKAIPDSYLSAIFRQVLQGLIYLHHDRHIIHRDLKPSNLLINHRGEVKITDFGVSTVMTNTAGLANEFVGTYNYMSPERIVGNKYGNKSDIWSLGLVVLECATGKFPYAPPNQEETWTSVFELMEAIVDQPPPALPSGNFSPELSSFISTCLQKDPNSRSSAKELMEHPFLNKYDYSGINLASYFTDAGSPLATLGNLSGTFSV [T226E] |
| increasing interaction | MKKGGFSNNLKLAIPVAGEQSITKFLTQSGTFKDGDLRVNKDGVRIISQLEPEVLSPIKPADDQLSLSDLDMVKVIGKGSSGVVQLVQHKWTGQFFALKVIQLNIDEAIRKAIAQELKINQSSQCPNLVTSYQSFYDNGAISLILEYMDGGSLADFLKSVKAIPDSYLSAIFRQVLQGLIYLHHDRHIIHRDLKPSNLLINHRGEVKITDFGVSTVMTNDAGLANTFVGTYNYMSPERIVGNKYGNKSDIWSLGLVVLECATGKFPYAPPNQEETWTSVFELMEAIVDQPPPALPSGNFSPELSSFISTCLQKDPNSRSSAKELMEHPFLNKYDYSGINLASYFTDAGSPLATLGNLSGTFSV [T220D] |

Variants of: B3
Details: with mpk11_arath MPK11, Q9LMM5

| effect of a mutation on the interaction | Variant |
| --- | --- |
| increasing interaction | MNRGSLCPNPICLPPLEQSISKFLTQSGTFKDGDLRVNKDGIQTVSLSEPGAPPPIEPLDNQLSLADLEVIKVIGKGSSGNVQLVKHKLTQQFFALKVIQLNTEESTCRAISQELRINLSSQCPYLVSCYQSFYHNGLVSIILEFMDGGSLADLLKKVGKVPENMLSAICKRVLRGLCYIHHERRIIHRDLKPSNLLINHRGEVKITDFGVSKILTSESSLANSFVGTYPYMSPERISGSLYSNKSDIWSLGLVLLECATGKFPYTPPEHKKGWSSVYELVDAIVENPPPCAPSNLFSPEFCSFISQCVQKDPRDRKSAKELLEHKFVKMFEDSDTNLSAYFTDAGSLIPPLAN [T218E] |
| increasing interaction | MNRGSLCPNPICLPPLEQSISKFLTQSGTFKDGDLRVNKDGIQTVSLSEPGAPPPIEPLDNQLSLADLEVIKVIGKGSSGNVQLVKHKLTQQFFALKVIQLNTEESTCRAISQELRINLSSQCPYLVSCYQSFYHNGLVSIILEFMDGGSLADLLKKVGKVPENMLSAICKRVLRGLCYIHHERRIIHRDLKPSNLLINHRGEVKITDFGVSKILTSTSSLANDFVGTYPYMSPERISGSLYSNKSDIWSLGLVLLECATGKFPYTPPEHKKGWSSVYELVDAIVENPPPCAPSNLFSPEFCSFISQCVQKDPRDRKSAKELLEHKFVKMFEDSDTNLSAYFTDAGSLIPPLAN [S224D] |

Variants of: B4
Details: with mpk6_arath MPK6, Q39026
Chain of mpk6_arath MPK6, Q39026 (Q39026 whole entry): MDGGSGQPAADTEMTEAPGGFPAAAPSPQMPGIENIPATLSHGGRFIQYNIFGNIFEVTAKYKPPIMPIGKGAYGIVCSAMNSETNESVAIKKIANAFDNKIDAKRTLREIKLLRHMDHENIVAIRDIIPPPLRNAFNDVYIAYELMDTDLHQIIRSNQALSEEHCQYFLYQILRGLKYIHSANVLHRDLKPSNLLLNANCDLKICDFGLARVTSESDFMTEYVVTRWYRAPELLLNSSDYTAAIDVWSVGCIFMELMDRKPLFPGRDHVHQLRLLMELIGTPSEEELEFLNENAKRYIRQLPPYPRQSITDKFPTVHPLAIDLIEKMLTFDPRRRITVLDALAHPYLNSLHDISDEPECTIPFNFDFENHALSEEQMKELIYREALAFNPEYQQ

| effect of a mutation on the interaction | Variant |
| --- | --- |
| increasing interaction | MALVRERRQLNLRLPLPPISDRRFSTSSSSATTTTVAGCNGISACDLEKLNVLGCGNGGIVYKVRHKTTSEIYALKTVNGDMDPIFTRQLMREMEILRRTDSPYVVKCHGIFEKPVVGEVSILMEYMDGGTLESLRGGVTEQKLAGFAKQILKGLSYLHALKIVHRDIKPANLLLNSKNEVKIADFGVSKILVRELDSCNSYVGTCAYMSPERFDSESSGGSSDIYAGDIWSFGLMMLELLVGHFPLLPPGQRPDWATLMCAVCFGEPPRAPEGCSEEFRSFVECCLRKDSSKRWTAPQLLAHPFLREDL [S195E] |

Variants of: B4
Details: with mpk10_arath MPK10, Q9M1Z5
Chain of mpk10_arath MPK10, Q9M1Z5 (Q9M1Z5 whole entry): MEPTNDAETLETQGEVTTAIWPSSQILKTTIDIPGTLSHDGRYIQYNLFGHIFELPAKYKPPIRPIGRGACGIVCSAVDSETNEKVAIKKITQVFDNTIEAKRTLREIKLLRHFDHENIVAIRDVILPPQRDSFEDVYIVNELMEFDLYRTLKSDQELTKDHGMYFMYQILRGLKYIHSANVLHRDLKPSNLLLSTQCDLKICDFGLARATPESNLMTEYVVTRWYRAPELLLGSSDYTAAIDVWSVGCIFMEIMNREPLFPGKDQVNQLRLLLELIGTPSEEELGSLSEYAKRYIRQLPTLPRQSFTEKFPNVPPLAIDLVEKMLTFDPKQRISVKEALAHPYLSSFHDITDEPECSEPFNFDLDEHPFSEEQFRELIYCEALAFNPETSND

| effect of a mutation on the interaction | Variant |
| --- | --- |
| increasing interaction | MALVRERRQLNLRLPLPPISDRRFSTSSSSATTTTVAGCNGISACDLEKLNVLGCGNGGIVYKVRHKTTSEIYALKTVNGDMDPIFTRQLMREMEILRRTDSPYVVKCHGIFEKPVVGEVSILMEYMDGGTLESLRGGVTEQKLAGFAKQILKGLSYLHALKIVHRDIKPANLLLNSKNEVKIADFGVSKILVRELDSCNSYVGTCAYMSPERFDSESSGGSSDIYAGDIWSFGLMMLELLVGHFPLLPPGQRPDWATLMCAVCFGEPPRAPEGCSEEFRSFVECCLRKDSSKRWTAPQLLAHPFLREDL [S195E] |
